How the values were obtained:
Alpha fetoprotein [1] = target: Alpha fetoprotein (UniProt P02771); assay: MAB602 capture beads, flow cytometry; AFP 0.0 ng/mL, anti-AFP probe
Alpha fetoprotein [2] = target: Alpha fetoprotein (UniProt P02771); assay: MAB602 capture beads, flow cytometry; AFP 0.1 ng/mL, anti-AFP probe
[3] = target: Human chorionic gonadotropin (human) (UniProt P01215); assay: bead sandwich, flow cytometry; capture B1 (AB633) beads, no hCG (background)
Alpha fetoprotein [4] = target: Alpha fetoprotein (UniProt P02771); assay: MAB602 capture beads, flow cytometry; AFP 1.0 ng/mL, anti-AFP probe
[5] = target: Human chorionic gonadotropin (human) (UniProt P01215); assay: bead sandwich, flow cytometry; capture B1 (AB633) beads, hCG 20.0 ug/mL
[6] = target: Human chorionic gonadotropin (human) (UniProt P01215); assay: bead sandwich, flow cytometry; capture B2 beads, no hCG (background)
Alpha fetoprotein [7] = target: Alpha fetoprotein (UniProt P02771); assay: MAB602 capture beads, flow cytometry; AFP 10.0 ng/mL, anti-AFP probe
Alpha fetoprotein [8] = target: Alpha fetoprotein (UniProt P02771); assay: MAB602 capture beads, flow cytometry; AFP 1000.0 ng/mL, anti-AFP probe
[9] = target: Human chorionic gonadotropin (human) (UniProt P01215); assay: bead sandwich, flow cytometry; capture B2 beads, hCG 20.0 ug/mL
Alpha fetoprotein [10] = target: Alpha fetoprotein (UniProt P02771); assay: MAB602 capture beads, flow cytometry; AFP 100.0 ng/mL, anti-AFP probe

Chain of UniProt P01215 (P01215 25-116, chain 1 of 2, other chains not shown): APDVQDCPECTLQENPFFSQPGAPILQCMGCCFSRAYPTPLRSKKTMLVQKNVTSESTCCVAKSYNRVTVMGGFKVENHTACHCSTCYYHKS
Chain of UniProt P02771 (P02771 19-609 limits assumed): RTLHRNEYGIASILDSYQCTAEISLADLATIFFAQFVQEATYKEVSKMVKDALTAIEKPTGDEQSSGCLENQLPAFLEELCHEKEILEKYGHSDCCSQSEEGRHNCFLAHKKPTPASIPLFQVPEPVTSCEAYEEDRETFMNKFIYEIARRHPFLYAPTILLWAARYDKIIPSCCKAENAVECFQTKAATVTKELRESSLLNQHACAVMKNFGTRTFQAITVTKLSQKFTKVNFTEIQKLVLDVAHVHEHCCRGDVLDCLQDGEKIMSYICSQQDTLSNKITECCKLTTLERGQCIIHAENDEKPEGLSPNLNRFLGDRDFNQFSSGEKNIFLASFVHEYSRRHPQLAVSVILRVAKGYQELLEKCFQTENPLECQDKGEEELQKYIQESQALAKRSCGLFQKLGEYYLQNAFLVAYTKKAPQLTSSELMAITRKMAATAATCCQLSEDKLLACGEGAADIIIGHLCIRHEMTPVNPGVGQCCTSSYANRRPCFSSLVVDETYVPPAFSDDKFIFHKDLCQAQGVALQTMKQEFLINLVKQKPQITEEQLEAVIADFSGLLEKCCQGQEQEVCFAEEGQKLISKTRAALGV

Q: MAB602 monoclonal anti-hCG antibody was tested. Which MIF of Fm (Alpha fetoprotein [1]) did it give?
A: 48

Q: And the MIF of Fm (Alpha fetoprotein [2])?
A: 48

Q: What about the MIF of Fm [3] of the same substance?
A: 33

Q: And the MIF of Fm (Alpha fetoprotein [4])?
A: 48

Q: What about the MIF of Fm [5] of the same substance?
A: 107

Q: What about the MIF of Fm [6] of the same substance?
A: 56

Q: What about the MIF of Fm (Alpha fetoprotein [7]) of the same substance?
A: 48

Q: And the MIF of Fm (Alpha fetoprotein [8])?
A: 52

Q: What about the MIF of Fm [9] of the same substance?
A: 886

Q: And the MIF of Fm (Alpha fetoprotein [10])?
A: 48

From patent publication US20040059519A1
